Assay results taken from the supplement of paper PMC9112550, “Optimization of the antimicrobial peptide Bac7 by deep mutational scanning” (BMC Biology, 2022).

test system: Escherichia coli TOP10; assay: shrunken log2 fold change of peptide-encoding DNA abundance (4.5 h post-induction vs induction); higher = less antimicrobial activity (less host growth inhibition); conditions: time post-induction: 4.5 h; library: site-saturation at positions 5, 18, 19, 20
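Also: peptides expressed intracellularly from a pBAD plasmid library in pooled LB shake-flask culture, induced with 0.3% L-arabinose, DNA abundance read by NGS, three biological replicates, DESeq2 with apeglm shrinkage.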

Sequence	shrunken log2 fold change
RRIRFRPPRLPRPRPRPWKNPRP	0.0106
RRIRFRPPRLPRPRPRPWLDPRP	-0.0286
RRIRFRPPRLPRPRPRPWLMPRP	-0.58
RRIRFRPPRLPRPRPRPWMQPRP	-0.139
RRIRFRPPRLPRPRPRPWNCPRP	-0.0434
RRIRFRPPRLPRPRPRPWPSPRP	-0.0611
RRIRFRPPRLPRPRPRPWPTPRP	-0.0457
RRIRFRPPRLPRPRPRPWQIPRP	-0.0302
RRIRFRPPRLPRPRPRPWSPPRP	-0.491
RRIRFRPPRLPRPRPRPWVGPRP	-0.0721
RRIRFRPPRLPRPRPRPWWKPRP	0.0472
RRIRFRPPRLPRPRPRPWYYPRP	-0.735
RRIRFRPPRLPRPRPRPYAEPRP	-0.823
RRIRFRPPRLPRPRPRPYCLPRP	-0.341
RRIRFRPPRLPRPRPRPYCTPRP	-0.873
RRIRFRPPRLPRPRPRPYDYPRP	-0.107
RRIRFRPPRLPRPRPRPYELPRP	0.0447
RRIRFRPPRLPRPRPRPYFFPRP	-0.544
RRIRFRPPRLPRPRPRPYFHPRP	-1.66
RRIRFRPPRLPRPRPRPYFKPRP	-0.848
RRIRFRPPRLPRPRPRPYLFPRP	0.425
RRIRFRPPRLPRPRPRPYMMPRP	-0.34
RRIRFRPPRLPRPRPRPYNNPRP	-1.15
RRIRFRPPRLPRPRPRPYNTPRP	-1.1
RRIRFRPPRLPRPRPRPYNYPRP	-1.03

Sequence	shrunken log2 fold change
RRIRFRPPRLPRPRPRPYVCPRP	-0.301
RRIRFRPPRLPRPRPRPYWHPRP	-0.754
RRIRFRPPRLPRPRPRPYYEPRP	-0.231
RRIRFRPPRLPRPRPRPYYSPRP	-0.228
RRIRGRPPRLPRPRPRPAAEPRP	2.52
RRIRGRPPRLPRPRPRPAAHPRP	0.807
RRIRGRPPRLPRPRPRPACGPRP	0.967
RRIRGRPPRLPRPRPRPACQPRP	0.883
RRIRGRPPRLPRPRPRPAFGPRP	0.476
RRIRGRPPRLPRPRPRPAFKPRP	0.177
RRIRGRPPRLPRPRPRPAGQPRP	0.727
RRIRGRPPRLPRPRPRPAGTPRP	0.752
RRIRGRPPRLPRPRPRPAHQPRP	0.65
RRIRGRPPRLPRPRPRPAKEPRP	0.414
RRIRGRPPRLPRPRPRPAKGPRP	0.0624
RRIRGRPPRLPRPRPRPAKLPRP	0.154
RRIRGRPPRLPRPRPRPAKNPRP	0.554
RRIRGRPPRLPRPRPRPAKTPRP	0.121
RRIRGRPPRLPRPRPRPALTPRP	0.874
RRIRGRPPRLPRPRPRPAMFPRP	0.455
RRIRGRPPRLPRPRPRPAMGPRP	0.541
RRIRGRPPRLPRPRPRPANLPRP	0.166
RRIRGRPPRLPRPRPRPANRPRP	0.0838
RRIRGRPPRLPRPRPRPAPDPRP	1.07
RRIRGRPPRLPRPRPRPAQVPRP	0.274

Sequence	shrunken log2 fold change
RRIRGRPPRLPRPRPRPARGPRP	0.915
RRIRGRPPRLPRPRPRPASSPRP	0.653
RRIRGRPPRLPRPRPRPATMPRP	0.44
RRIRGRPPRLPRPRPRPATTPRP	0.871
RRIRGRPPRLPRPRPRPAVAPRP	0.813
RRIRGRPPRLPRPRPRPAVSPRP	0.573
RRIRGRPPRLPRPRPRPAWIPRP	0.347
RRIRGRPPRLPRPRPRPAWSPRP	0.929
RRIRGRPPRLPRPRPRPCAQPRP	1.07
RRIRGRPPRLPRPRPRPCASPRP	0.557
RRIRGRPPRLPRPRPRPCCKPRP	-0.108
RRIRGRPPRLPRPRPRPCDDPRP	1.24
RRIRGRPPRLPRPRPRPCEPPRP	0.241
RRIRGRPPRLPRPRPRPCFEPRP	0.629
RRIRGRPPRLPRPRPRPCFIPRP	0.0559
RRIRGRPPRLPRPRPRPCFRPRP	0.0644
RRIRGRPPRLPRPRPRPCFTPRP	0.334
RRIRGRPPRLPRPRPRPCGNPRP	0.255
RRIRGRPPRLPRPRPRPCHQPRP	-0.0488
RRIRGRPPRLPRPRPRPCIGPRP	-0.143
RRIRGRPPRLPRPRPRPCKMPRP	-0.0103
RRIRGRPPRLPRPRPRPCNDPRP	0.376
RRIRGRPPRLPRPRPRPCQHPRP	-0.153
RRIRGRPPRLPRPRPRPCRGPRP	-0.0404
RRIRGRPPRLPRPRPRPCRWPRP	0.611

Sequence	shrunken log2 fold change
RRIRGRPPRLPRPRPRPCSCPRP	0.105
RRIRGRPPRLPRPRPRPCSLPRP	0.237
RRIRGRPPRLPRPRPRPCVGPRP	0.729
RRIRGRPPRLPRPRPRPCVPPRP	0.307
RRIRGRPPRLPRPRPRPCWEPRP	-0.000921
RRIRGRPPRLPRPRPRPCYWPRP	0.553
RRIRGRPPRLPRPRPRPDAEPRP	3.37
RRIRGRPPRLPRPRPRPDCWPRP	1.58
RRIRGRPPRLPRPRPRPDDDPRP	0.0442
RRIRGRPPRLPRPRPRPDDIPRP	0.027
RRIRGRPPRLPRPRPRPDEWPRP	0.757
RRIRGRPPRLPRPRPRPDGHPRP	0.471
RRIRGRPPRLPRPRPRPDGSPRP	0.85
RRIRGRPPRLPRPRPRPDHQPRP	0.12
RRIRGRPPRLPRPRPRPDKDPRP	0.602
RRIRGRPPRLPRPRPRPDKSPRP	0.18
RRIRGRPPRLPRPRPRPDLEPRP	0.288
RRIRGRPPRLPRPRPRPDLRPRP	0.0067
RRIRGRPPRLPRPRPRPDMTPRP	3.09
RRIRGRPPRLPRPRPRPDPAPRP	1.06
RRIRGRPPRLPRPRPRPDPHPRP	0.507
RRIRGRPPRLPRPRPRPDPLPRP	0.072
RRIRGRPPRLPRPRPRPDQHPRP	0.271
RRIRGRPPRLPRPRPRPDRGPRP	-0.123
RRIRGRPPRLPRPRPRPDSDPRP	0.0289

Sequence	shrunken log2 fold change
RRIRGRPPRLPRPRPRPDSTPRP	0.213
RRIRGRPPRLPRPRPRPDTHPRP	-0.156
RRIRGRPPRLPRPRPRPDTNPRP	0.199
RRIRGRPPRLPRPRPRPDTRPRP	0.162
RRIRGRPPRLPRPRPRPDTWPRP	0.465
RRIRGRPPRLPRPRPRPDTYPRP	0.241
RRIRGRPPRLPRPRPRPDWSPRP	0.203
RRIRGRPPRLPRPRPRPDYAPRP	-0.0775
RRIRGRPPRLPRPRPRPDYIPRP	-0.144
RRIRGRPPRLPRPRPRPDYQPRP	-0.418
RRIRGRPPRLPRPRPRPEADPRP	1
RRIRGRPPRLPRPRPRPEAWPRP	1.91
RRIRGRPPRLPRPRPRPEEKPRP	1.66
RRIRGRPPRLPRPRPRPEESPRP	1.82
RRIRGRPPRLPRPRPRPEFEPRP	0.612
RRIRGRPPRLPRPRPRPEGEPRP	1.97
RRIRGRPPRLPRPRPRPEGPPRP	-0.0198
RRIRGRPPRLPRPRPRPEGSPRP	1.28
RRIRGRPPRLPRPRPRPEHFPRP	0.00955
RRIRGRPPRLPRPRPRPEHWPRP	0.378
RRIRGRPPRLPRPRPRPEIMPRP	1.33
RRIRGRPPRLPRPRPRPEMNPRP	0.999
RRIRGRPPRLPRPRPRPEMVPRP	2.43
RRIRGRPPRLPRPRPRPEPHPRP	1.09
RRIRGRPPRLPRPRPRPEQIPRP	0.438

Sequence	shrunken log2 fold change
RRIRGRPPRLPRPRPRPEQNPRP	1.31
RRIRGRPPRLPRPRPRPEQSPRP	1.05
RRIRGRPPRLPRPRPRPESAPRP	1.67
RRIRGRPPRLPRPRPRPESQPRP	1.57
RRIRGRPPRLPRPRPRPESYPRP	0.0402
RRIRGRPPRLPRPRPRPETEPRP	2.25
RRIRGRPPRLPRPRPRPETFPRP	1.08
RRIRGRPPRLPRPRPRPEWDPRP	1.56
RRIRGRPPRLPRPRPRPEWIPRP	0.142
RRIRGRPPRLPRPRPRPEWQPRP	0.783
RRIRGRPPRLPRPRPRPEYFPRP	0.11
RRIRGRPPRLPRPRPRPFAQPRP	0.456
RRIRGRPPRLPRPRPRPFAVPRP	0.396
RRIRGRPPRLPRPRPRPFCRPRP	0.326
RRIRGRPPRLPRPRPRPFDGPRP	0.366
RRIRGRPPRLPRPRPRPFDPPRP	0.14
RRIRGRPPRLPRPRPRPFEEPRP	0.231
RRIRGRPPRLPRPRPRPFETPRP	2.8
RRIRGRPPRLPRPRPRPFFMPRP	0.374
RRIRGRPPRLPRPRPRPFGHPRP	-0.164
RRIRGRPPRLPRPRPRPFHWPRP	0.134
RRIRGRPPRLPRPRPRPFIEPRP	0.364
RRIRGRPPRLPRPRPRPFIGPRP	-0.258
RRIRGRPPRLPRPRPRPFISPRP	0.183
RRIRGRPPRLPRPRPRPFKPPRP	-0.0354
